Reference: publication PMC6473903, “Isoform-Specific NO Synthesis by Arabidopsis thaliana Nitrate Reductase” (Plants, 2019)

Assays:
Experiment in all cases: BV:nitrite steady-state assay, A595
Format in all cases: biochemical, Arabidopsis thaliana
Details in all cases: reduced benzyl viologen as electron donor, pH 7.5, 22-25 °C, anaerobic
[1] = substrate: O=NO
Source text: BV:nitrite steady-state assay, A595 on NIA1-Mo-heme

[2] = substrate: O=NO; remark: listed apart in the source
Source text: BV:nitrite steady-state assay, A595 on NIA1-Mo

[3] = substrate: O=NO; remark: listed apart in the source
Source text: BV:nitrite steady-state assay, A595 on NIA2-Mo-heme

B1: NIA1-Mo-heme (Arabidopsis thaliana) (protein)
chain: MATSVDNRHYPTMNGVAHAFKPPLVPSPRSFDRHRHQNQTLDVILTETKIVKETEVITTVVDSYDDSSSDDEDESHNRNVPYYKELVKKSNSDLEPSILDPRDESTADSWIQRNSSMLRLTGKHPFNAEAPLPRLMHHGFITPVPLHYVRNHGAVPKANWSDWSIEITGLVKRPAKFTMEELISEFPSREFPVTLVCAGNRRKEQNMVKQTIGFNWGSAGVSTSLWKGIPLSEILRRCGIYSRRGGALNVCFEGAEDLPGGGGSKYGTSIKKEMAMDPARDIILAYMQNGELLTPDHGFPVRVIVPGFIGGRMVKWLKRIIVTPQESDSYYHYKDNRVLPSLVDAELANSEAWWYKPEYIINELNINSVITTPGHAEILPINAFTTQKPYTLKGYAYSGGGKKVTRVEVTLDGGDTWSVCELDHQEKPNKYGKFWCWCFWSLDVEVLDLLSAKDVAVRAWDESFNTQPDKLIWNLMGMMNNCWFRIRTNVCKPHRGEIGIVFEHPTRPGNQSGGWMAKERQLEISSESNNTLKKSVSSPFMNTASKMYSISEVRKHNTADSAWIIVHGHIYDCTRFLKDHPGGTDSILINAGTDCTEEFEAIHSDKAKKLLEDYRIGELITTGYDSS
notes: N-terminal Moco + hinge 1 + heme domain fragment, residues 1-627; pQE80L, E. coli, Ni-NTA (IMAC) and SEC purified
**Q.** Which results are given for B1?
**A.** Km [1]: 35.5 ± 2.7 µM; kcat [1]: 19.8 ± 4.8 s⁻¹

B2: NIA1-Mo (Arabidopsis thaliana) (protein)
chain: MATSVDNRHYPTMNGVAHAFKPPLVPSPRSFDRHRHQNQTLDVILTETKIVKETEVITTVVDSYDDSSSDDEDESHNRNVPYYKELVKKSNSDLEPSILDPRDESTADSWIQRNSSMLRLTGKHPFNAEAPLPRLMHHGFITPVPLHYVRNHGAVPKANWSDWSIEITGLVKRPAKFTMEELISEFPSREFPVTLVCAGNRRKEQNMVKQTIGFNWGSAGVSTSLWKGIPLSEILRRCGIYSRRGGALNVCFEGAEDLPGGGGSKYGTSIKKEMAMDPARDIILAYMQNGELLTPDHGFPVRVIVPGFIGGRMVKWLKRIIVTPQESDSYYHYKDNRVLPSLVDAELANSEAWWYKPEYIINELNINSVITTPGHAEILPINAFTTQKPYTLKGYAYSGGGKKVTRVEVTLDGGDTWSVCELDHQEKPNKYGKFWCWCFWSLDVEVLDLLSAKDVAVRAWDESFNTQPDKLIWNLMGMMNNCWFRIRT
notes: Moco domain only, residues 1-488; His-tagged, pQE80L, E. coli TP1004
**Q.** Which results are given for B2?
**A.** Km [2]: 35.3 ± 3.2 µM; kcat [2]: 138 ± 2.5 s⁻¹

B3: NIA2-Mo-heme (Arabidopsis thaliana) (protein)
chain: MAASVDNRQYARLEPGLNGVVRSYKPPVPGRSDSPKAHQNQTTNQTVFLKPAKVHDDDEDVSSEDENETHNSNAVYYKEMIRKSNAELEPSVLDPRDEYTADSWIERNPSMVRLTGKHPFNSEAPLNRLMHHGFITPVPLHYVRNHGHVPKAQWAEWTVEVTGFVKRPMKFTMDQLVSEFAYREFAATLVCAGNRRKEQNMVKKSKGFNWGSAGVSTSVWRGVPLCDVLRRCGIFSRKGGALNVCFEGSEDLPGGAGTAGSKYGTSIKKEYAMDPSRDIILAYMQNGEYLTPDHGFPVRIIIPGFIGGRMVKWLKRIIVTTKESDNFYHFKDNRVLPSLVDAELADEEGWWYKPEYIINELNINSVITTPCHEEILPINAFTTQRPYTLKGYAYSGGGKKVTRVEVTVDGGETWNVCALDHQEKPNKYGKFWCWCFWSLEVEVLDLLSAKEIAVRAWDETLNTQPEKMIWNLMGMMNNCWFRVKTNVCKPHKGEIGIVFEHPTLPGNESGGWMAKERHLEKSADAPPSLKKSVSTPFMNTTAKMYSMSEVKKHNSADSCWIIVHGHIYDCTRFLMDHPGGSDSILINAGTDCTEEFEAIHSDKAKKMLEDYRIGELITTGYSSDS
notes: N-terminal Moco + hinge 1 + heme domain fragment, residues 1-625; E. coli TP1004, Ni-NTA and SEC purified
**Q.** How did the Km [3] turn out when B3 was run?
**A.** 13.7 ± 3.3 µM

**Q.** And the kcat [3]?
**A.** 1.8 ± 0.3 s⁻¹

B4: NIA2-Mo-heme (Arabidopsis thaliana; H600A) (protein)
chain: MAASVDNRQYARLEPGLNGVVRSYKPPVPGRSDSPKAHQNQTTNQTVFLKPAKVHDDDEDVSSEDENETHNSNAVYYKEMIRKSNAELEPSVLDPRDEYTADSWIERNPSMVRLTGKHPFNSEAPLNRLMHHGFITPVPLHYVRNHGHVPKAQWAEWTVEVTGFVKRPMKFTMDQLVSEFAYREFAATLVCAGNRRKEQNMVKKSKGFNWGSAGVSTSVWRGVPLCDVLRRCGIFSRKGGALNVCFEGSEDLPGGAGTAGSKYGTSIKKEYAMDPSRDIILAYMQNGEYLTPDHGFPVRIIIPGFIGGRMVKWLKRIIVTTKESDNFYHFKDNRVLPSLVDAELADEEGWWYKPEYIINELNINSVITTPCHEEILPINAFTTQRPYTLKGYAYSGGGKKVTRVEVTVDGGETWNVCALDHQEKPNKYGKFWCWCFWSLEVEVLDLLSAKEIAVRAWDETLNTQPEKMIWNLMGMMNNCWFRVKTNVCKPHKGEIGIVFEHPTLPGNESGGWMAKERHLEKSADAPPSLKKSVSTPFMNTTAKMYSMSEVKKHNSADSCWIIVHGHIYDCTRFLMDHPGGSDSILINAGTDCTEEFEAIASDKAKKMLEDYRIGELITTGYSSDS
notes: as for B3
**Q.** Which results are given for B4?
**A.** Km ([3]; heme-coordinating His mutated): 10.3 ± 1.2 µM; kcat ([3]; heme-coordinating His mutated): 1.2 ± 0.02 s⁻¹
